{"source": "paper PMC4784862", "about": "“DNA Sequence Determinants Controlling Affinity, Stability and Shape of DNA Complexes Bound by the Nucleoid Protein Fis”", "binders": {"B1": {"name": "F1±9G (dsDNA)", "DNA 1": "AAATGTGTTTGAATTTTGAGCACATTT", "DNA 2": "AAATGTGCTCAAAATTCAAACACATTT"}, "B2": {"name": "F1±10G (dsDNA)", "DNA 1": "AAAGTTGTTTGAATTTTGAGCAACTTT", "DNA 2": "AAAGTTGCTCAAAATTCAAACAACTTT"}, "B3": {"name": "F1±10C (dsDNA)", "DNA 1": "AAACTTGTTTGAATTTTGAGCAAGTTT", "DNA 2": "AAACTTGCTCAAAATTCAAACAAGTTT"}, "B4": {"name": "F1±9C (dsDNA)", "DNA 1": "AAATCTGTTTGAATTTTGAGCAGATTT", "DNA 2": "AAATCTGCTCAAAATTCAAACAGATTT"}, "B5": {"name": "F1±10A (dsDNA)", "DNA 1": "AAAATTGTTTGAATTTTGAGCAATTTT", "DNA 2": "AAAATTGCTCAAAATTCAAACAATTTT"}}, "settings_in_all_cases": "protein: recombinant; chain copies: 2; label: 5'-32P", "key": {"Fis WT [1]": {"target": "T1, Fis WT (UniProt P0A6R3 1-98)", "T1 sequence (P0A6R3 whole entry)": "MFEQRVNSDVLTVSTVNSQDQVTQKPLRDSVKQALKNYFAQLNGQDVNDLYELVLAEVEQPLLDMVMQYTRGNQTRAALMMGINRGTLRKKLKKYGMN", "assay": "EMSA; t1/2 25 min; EMSA: 20 mM Hepes pH 7.5, 0.15 M NaCl, 5% glycerol, 0.5 mg/ml BSA, 1 mM EDTA, 1 mM DTT, 0.1 nM 32P 27 bp probe, 50 ug/ml poly dI/dC; temperature not stated"}, "Fis WT [2]": {"target": "T1, Fis WT", "assay": "EMSA; t1/2 38 min; EMSA: 20 mM Hepes pH 7.5, 0.15 M NaCl, 5% glycerol, 0.5 mg/ml BSA, 1 mM EDTA, 1 mM DTT, 0.1 nM 32P 27 bp probe, 50 ug/ml poly dI/dC; temperature not stated"}, "Fis WT [3]": {"target": "T1, Fis WT", "assay": "EMSA; t1/2 44 min; EMSA: 20 mM Hepes pH 7.5, 0.15 M NaCl, 5% glycerol, 0.5 mg/ml BSA, 1 mM EDTA, 1 mM DTT, 0.1 nM 32P 27 bp probe, 50 ug/ml poly dI/dC; temperature not stated"}, "Fis WT [4]": {"target": "T1, Fis WT", "assay": "EMSA; t1/2 30 min; EMSA: 20 mM Hepes pH 7.5, 0.15 M NaCl, 5% glycerol, 0.5 mg/ml BSA, 1 mM EDTA, 1 mM DTT, 0.1 nM 32P 27 bp probe, 50 ug/ml poly dI/dC; temperature not stated"}, "Fis WT [5]": {"target": "T1, Fis WT", "assay": "EMSA; t1/2 36 min; EMSA: 20 mM Hepes pH 7.5, 0.15 M NaCl, 5% glycerol, 0.5 mg/ml BSA, 1 mM EDTA, 1 mM DTT, 0.1 nM 32P 27 bp probe, 50 ug/ml poly dI/dC; temperature not stated"}}, "data": [{"binder": "B1", "values": [{"measurement": "Kd", "setting": "Fis WT [1]", "result": "600 ± 200", "unit": "pM"}]}, {"binder": "B2", "values": [{"measurement": "Kd", "setting": "Fis WT [2]", "result": "500 ± 100", "unit": "pM"}]}, {"binder": "B3", "values": [{"measurement": "Kd", "setting": "Fis WT [3]", "result": "300 ± 100", "unit": "pM"}]}, {"binder": "B4", "values": [{"measurement": "Kd", "setting": "Fis WT [4]", "result": "300 ± 100", "unit": "pM"}]}, {"binder": "B5", "values": [{"measurement": "Kd", "setting": "Fis WT [5]", "result": "500 ± 100", "unit": "pM"}]}]}
